Experiments:
Assay in all cases: purified protein
[1] = test system: CCC(=O)SCCNC(=O)CCNC(=O)[C@H](O)C(C)(C)COP(=O)(O)OP(=O)(O)OC[C@H]1O[C@@H](n2cnc3c(N)ncnc32)[C@H](O)[C@@H]1OP(=O)(O)O; conditions: co-substrate acetate 20 mM, 100 mM Tris-HCl pH 7.8, 5 mM MgCl2, 5 mM DTT, 55 °C
O=C(O)CCCO = conditions: co-substrate acetyl-CoA 1 mM, 100 mM Tris-HCl pH 7.8, 5 mM MgCl2, 5 mM DTT, 55 °C
CCC(=O)O = conditions: co-substrate acetyl-CoA 2 mM, 100 mM Tris-HCl pH 7.8, 5 mM MgCl2, 5 mM DTT, 55 °C
[2] = test system: CC(=O)SCCNC(=O)CCNC(=O)[C@H](O)C(C)(C)COP(=O)(O)OP(=O)(O)OC[C@H]1O[C@@H](n2cnc3c(N)ncnc32)[C@H](O)[C@@H]1OP(=O)(O)O; conditions: co-substrate succinate 40 mM, 100 mM Tris-HCl pH 7.8, 5 mM MgCl2, 5 mM DTT, 55 °C
[3] = test system: CC(C)(COP(=O)(O)OP(=O)(O)OC[C@H]1O[C@@H](n2cnc3c(N)ncnc32)[C@H](O)[C@@H]1OP(=O)(O)O)[C@@H](O)C(=O)NCCC(=O)NCCSC(=O)CCC(=O)O; conditions: co-substrate propionate 20 mM, 100 mM Tris-HCl pH 7.8, 5 mM MgCl2, 5 mM DTT, 55 °C

succinyl-CoA:acetate CoA-transferase encoded by the AHF96498 gene (AHF96498 gene product) (Desulfurella acetivorans A63)
Km [1]: 1100 ± 300 µM | Vmax [1]: 669 µmol/min/mg | kcat/Km [1]: 584000 M⁻¹ s⁻¹ | Km (O=C(O)CCCO): 400 ± 100 µM | Vmax (O=C(O)CCCO): 7.7 µmol/min/mg | kcat/Km (O=C(O)CCCO): 24000 M⁻¹ s⁻¹ | Km (CCC(=O)O): 3900 ± 800 µM | Vmax (CCC(=O)O): 875 µmol/min/mg | kcat/Km (CCC(=O)O): 223000 M⁻¹ s⁻¹ | Km [2]: 200 ± 40 µM | Vmax [2]: 90 µmol/min/mg | kcat/Km [2]: 534000 M⁻¹ s⁻¹ | Km [3]: 1200 ± 300 µM | kcat/Km [3]: 14000 M⁻¹ s⁻¹

Source: PMC9768450
